# Measured values as given in IntAct's records for PubMed 22580824.
# B1: Kinesin-like protein KIF23 (Homo sapiens), Q02241 (parent)
# chain: MKSARAKTPRKPTVKKGSQTNLKDPVGVYCRVRPLGFPDQECCIEVINNTTVQLHTPEGYRLNRNGDYKETQYSFKQVFGTHTTQKELFDVVANPLVNDLIHGKNGLLFTYGVTGSGKTHTMTGSPGEGGLLPRCLDMIFNSIGSFQAKRYVFKSNDRNSMDIQCEVDALLERQKREAMPNPKTSSSKRQVDPEFADMITVQEFCKAEEVDEDSVYGVFVSYIEIYNNYIYDLLEEVPFDPIKPKPPQSKLLREDKNHNMYVAGCTEVEVKSTEEAFEVFWRGQKKRRIANTHLNRESSRSHSVFNIKLVQAPLDADGDNVLQEKEQITISQLSLVDLAGSERTNRTRAEGNRLREAGNINQSLMTLRTCMDVLRENQMYGTNKMVPYRDSKLTHLFKNYFDGEGKVRMIVCVNPKAEDYEENLQVMRFAEVTQEVEVARPVDKAICGLTPGRRYRNQPRGPVGNEPLVTDVVLQSFPPLPSCEILDINDEQTLPRLIEALEKRHNLRQMMIDEFNKQSNAFKALLQEFDNAVLSKENHMQGKLNEKEKMISGQKLEIERLEKKNKTLEYKIEILEKTTTIYEEDKRNLQQELETQNQKLQRQFSDKRRLEARLQGMVTETTMKWEKECERRVAAKQLEMQNKLWVKDEKLKQLKAIVTEPKTEKPERPSRERDREKVTQRSVSPSPVPLSSNYIAQISNGQQLMSQPQLHRRSNSCSSISVASCISEWEQKIPTYNTPLKVTSIARRRQQEPGQSKTCIVSDRRRGMYWTEGREVVPTFRNEIEIEEDHCGRLLFQPDQNAPPIRLRHRRSRSAGDRWVDHKPASNMQTETVMQPHVPHAITVSVANEKALAKCEKYMLTHQELASDGEIETKLIKGDIYKTRGGGQSVQFTDIETLKQESPNGSRKRRSSTVAPAQPDGAESEWTDVETRCSVAVEMRAGSQLGPGYQHHAQPKRKKP
# partner: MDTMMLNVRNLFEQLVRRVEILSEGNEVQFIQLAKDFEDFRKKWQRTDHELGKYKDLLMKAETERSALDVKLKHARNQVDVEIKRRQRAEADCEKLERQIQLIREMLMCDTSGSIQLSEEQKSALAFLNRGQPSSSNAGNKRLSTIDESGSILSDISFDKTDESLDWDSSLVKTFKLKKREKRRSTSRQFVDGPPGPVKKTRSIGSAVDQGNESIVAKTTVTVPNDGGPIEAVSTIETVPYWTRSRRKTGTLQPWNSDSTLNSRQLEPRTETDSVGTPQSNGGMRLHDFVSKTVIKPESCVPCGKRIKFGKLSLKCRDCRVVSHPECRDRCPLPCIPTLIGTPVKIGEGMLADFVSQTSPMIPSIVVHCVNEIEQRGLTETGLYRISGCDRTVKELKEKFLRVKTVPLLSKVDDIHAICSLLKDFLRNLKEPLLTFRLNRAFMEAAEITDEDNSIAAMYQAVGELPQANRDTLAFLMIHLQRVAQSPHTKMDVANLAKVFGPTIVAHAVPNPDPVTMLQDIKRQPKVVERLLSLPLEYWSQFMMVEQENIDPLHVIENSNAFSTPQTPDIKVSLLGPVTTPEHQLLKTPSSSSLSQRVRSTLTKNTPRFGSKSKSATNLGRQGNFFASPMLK
# B2: ADP-ribosylation factor 6 (Homo sapiens), P62330 (parent)
# chain: MGKVLSKIFGNKEMRILMLGLDAAGKTTILYKLKLGQSVTTIPTVGFNVETVTYKNVKFNVWDVGGQDKIRPLWRHYYTGTQGLIFVVDCADRDRIDEARQELHRIINDREMRDAIILIFANKQDLPDAMKPHEIQEKLGLTRIRDRNWYVQPSCATSGDGLYEGLTWLTSNYKS
# partner: B1 chain
# B3: Kinesin-like protein KIF23 (Homo sapiens), Q02241 (parent)
# chain: B1 chain
# Variants of: B1
# Conditions: with rgap1_human RACGAP1, Q9H0H5
row,effect of a mutation on the interaction,Variant
1,increasing interaction,S814A

# Variants of: B1
# Conditions: with rgap1_human RACGAP1, Q9H0H5
# Remark: another data set of the same source
row,effect of a mutation on the interaction,Variant
1,increasing interaction,V890A

# Variants of: B2
# Conditions: with kif23_human KIF23, Q02241
row,effect of a mutation on the interaction,Variant
1,disrupting interaction,T27N

# Variants of: B3
# Conditions: with arf6_human ARF6, P62330
row,effect of a mutation on the interaction,Variant
1,disrupting interaction,T873A

# Variants of: B3
# Conditions: with arf6_human ARF6, P62330
# Remark: another data set of the same source
row,effect of a mutation on the interaction,Variant
1,decreasing interaction,T873A

# Variants of: B3
# Conditions: with arf6_human ARF6, P62330
# Remark: another data set of the same source
row,effect of a mutation on the interaction,Variant
1,disrupting interaction,Q863A

# Variants of: B3
# Conditions: with arf6_human ARF6, P62330
# Remark: another data set of the same source
row,effect of a mutation on the interaction,Variant
1,decreasing interaction,Q863A

# Variants of: B3
# Conditions: with arf6_human ARF6, P62330
# Remark: another data set of the same source
row,effect of a mutation on the interaction,Variant
1,disrupting interaction,L794A

# Variants of: B3
# Conditions: with arf6_human ARF6, P62330
# Remark: another data set of the same source
row,effect of a mutation on the interaction,Variant
1,disrupting interaction,T779A

# Variants of: B3
# Conditions: with arf6_human ARF6, P62330
# Remark: another data set of the same source
row,effect of a mutation on the interaction,Variant
1,decreasing interaction,T779A

# Variants of: B3
# Conditions: with arf6_human ARF6, P62330
# Remark: another data set of the same source
row,effect of a mutation on the interaction,Variant
1,disrupting interaction,Y858A

# Variants of: B3
# Conditions: with arf6_human ARF6, P62330
# Remark: another data set of the same source
row,effect of a mutation on the interaction,Variant
1,disrupting interaction,E864A

# Variants of: B3
# Conditions: with arf6_human ARF6, P62330
# Remark: another data set of the same source
row,effect of a mutation on the interaction,Variant
1,disrupting interaction,E896A

# Variants of: B3
# Conditions: with arf6_human ARF6, P62330
# Remark: another data set of the same source
row,effect of a mutation on the interaction,Variant
1,disrupting interaction,L860A

# Variants of: B3
# Conditions: with arf6_human ARF6, P62330
# Remark: another data set of the same source
row,effect of a mutation on the interaction,Variant
1,decreasing interaction,L860A

# Variants of: B3
# Conditions: with arf6_human ARF6, P62330
# Remark: another data set of the same source
row,effect of a mutation on the interaction,Variant
1,disrupting interaction,K877A

# Variants of: B3
# Conditions: with arf6_human ARF6, P62330
# Remark: another data set of the same source
row,effect of a mutation on the interaction,Variant
1,decreasing interaction,K877A

# Variants of: B3
# Conditions: with arf6_human ARF6, P62330
# Remark: another data set of the same source
row,effect of a mutation on the interaction,Variant
1,disrupting interaction,F892A

# Variants of: B3
# Conditions: with arf6_human ARF6, P62330
# Remark: another data set of the same source
row,effect of a mutation on the interaction,Variant
1,disrupting interaction,V890A

# Variants of: B3
# Conditions: with arf6_human ARF6, P62330
# Remark: another data set of the same source
row,effect of a mutation on the interaction,Variant
1,decreasing interaction,V890A
